One data set relates to HepG2 cells. Nature of the data set: In vitro cellular uptake in HepG2 cells. Type of data set: cell-based.
Data set [1] can be described thus: Kidney-targeted delivery of full-length (22mer) anti-miR-21 PNA: biodistribution (IVIS, flow cytometry). Type of data set: in vivo, C57BL/6J mice. As to the method:
FIG. 9 illustrates that LBAAc ligand efficiently delivered a 22mer long PNA sequence to the kidney. […] PNA 6 contains succinic acid (SA) at 5′ end for conjugation with LBA-lysine conjugate. Lysine (K) was added on the 3′ end of the PNA followed by fluorescent probe 5-carboxytetramethylrhodamine (TAM) of each PNA. 000 represents the trioxo-miniPEG linker. […] Radiant Efficiency for TAMRA fluorescence in the kidneys of C57BL6/J mice. Results are represented as mean of n=2 with standard error mean as the error bars.
Full-length (22mer) PNA oligomers were designed and synthesized namely PNA 5, PNA 6 and LBAAc conjugate (PNA 6-LBAAc) to target miR-21 (FIG. 9A). PNA 6 was conjugated with LBAAc as described in FIG. 2A.
Biodistribution evaluation of PNA 5 and PNA 6-LBAAc in C57BL/6J mice at a low subcutaneous dose of 1.5 mg/kg (1/10 molar equiv of short PNA 1&2): A lower dose biodistribution was chosen for a comprehensive validation of LBAAc for kidney targeting. […] (FIG. 9D). Results were confirmed by flow cytometry analysis of kidney cells. The kidney cells obtained after RBC lysis were fixed with 4% PFA and analyzed for TAMRA fluorescence. The histogram plots representing the TAMRA fluorescence from 4 and 24 h samples confirmed the elimination of PNA 5 and accumulation of PNA 6-LBAAc in the kidney cells (FIG. 9C). […] Possibly the Tmax for kidney accumulation of PNA 6-LBAAc is >4 h. Decisively, the higher concentration of PNA 6-LBAAc in the kidney at 24 h compared to 4 h time point against PNA 5 confirmed the kidney targeting and potential of the LBAAc ligand.

On to “tris N-acetylgalactosamine [tGalNAc, reference compound]”, for which the cellular uptake result with HepG2 cells is given as “ASGPR mediated cellular uptake”.
For `CC(=O)OC[C@H]1O[C@@H](O[C@@H]([C@H](OC(C)=O)[C@@H](OC(C)=O)C(=O)NCCCC[C@H](NC(=O)[C@H](OC(C)=O)[C@@H](OC(C)=O)[C@H](O[C@@H]2O[C@H](COC(C)=O)[C@H](OC(C)=O)[C@H](OC(C)=O)[C@H]2OC(C)=O)[C@@H](COC(C)=O)OC(C)=O)C(=O)NCCCCCCNC(=O)CCC(=O)NCCOCCOCCOCC(=O)NCCN(CC(=O)NCCN(CC(=O)NCCN(CC(=O)NCCN(CC(=O)NCCN(CC(=O)NCCN(CC(=O)NCCN(CC(=O)NCCN(CC(=O)NCCN(CC(=O)NCCN(CC(=O)NCCN(CC(=O)NCCN(CC(=O)NCCN(CC(=O)NCCN(CC(=O)NCCN(CC(=O)NCCN(CC(=O)NCCN(CC(=O)NCCN(CC(=O)NCCN(CC(=O)NCCN(CC(=O)NCCN(CC(=O)NCCN(CC(=O)N[C@@H](CCCCNC(=O)COCCOCCOCCNC(=O)c2ccc(-c3c4ccc(=[N+](C)C)cc-4oc4cc(N(C)C)ccc34)c(C(=O)[O-])c2)C(N)=O)C(=O)Cn2cnc3c(N)ncnc32)C(=O)Cn2cc(C)c(=O)[nH]c2=O)C(=O)Cn2ccc(N)nc2=O)C(=O)Cn2cnc3c(=O)[nH]c(N)nc32)C(=O)Cn2cnc3c(N)ncnc32)C(=O)Cn2cnc3c(N)ncnc32)C(=O)Cn2cc(C)c(=O)[nH]c2=O)C(=O)Cn2cnc3c(N)ncnc32)C(=O)Cn2cnc3c(=O)[nH]c(N)nc32)C(=O)Cn2cc(C)c(=O)[nH]c2=O)C(=O)Cn2ccc(N)nc2=O)C(=O)Cn2cc(C)c(=O)[nH]c2=O)C(=O)Cn2cnc3c(=O)[nH]c(N)nc32)C(=O)Cn2cnc3c(N)ncnc32)C(=O)Cn2ccc(N)nc2=O)C(=O)Cn2cc(C)c(=O)[nH]c2=O)C(=O)Cn2cnc3c(N)ncnc32)C(=O)Cn2ccc(N)nc2=O)C(=O)Cn2cnc3c(N)ncnc32)C(=O)Cn2cnc3c(N)ncnc32)C(=O)Cn2ccc(N)nc2=O)C(=O)Cn2cc(C)c(=O)[nH]c2=O)[C@@H](COC(C)=O)OC(C)=O)[C@H](OC(C)=O)[C@@H](OC(C)=O)[C@H]1OC(C)=O` [PNA 6-LBAAc], in data set [1] (1.5 mg/kg subcutaneous), the “organ distribution of TAMRA fluorescence signal (IVIS)” value is recorded as “limited to the kidney only” and the “overall pharmacokinetics / biodistribution” value is “slower biodistribution”. For the same molecule, in data set [1] (1.5 mg/kg subcutaneous, 24 h), the “increase in kidney retention compared to unconjugated PNA 5” value was 4 fold and the “kidney concentration at 24 h” value is listed as “concentration increased in the kidney”. The “TAMRA fluorescence in kidney cells (flow cytometry)” value in data set [1] (4 and 24 h samples) was “accumulation”. In data set [1] (mouse, in vivo, sc, 1.5 mg/kg subcutaneous, read-out: Tmax for kidney accumulation), the Tmax is > 4 h.
In the case of `O=C(O)[C@H](O)[C@@H](O)[C@H](O[C@@H]1O[C@H](CO)[C@H](O)[C@H](O)[C@H]1O)[C@H](O)CO` [LBA, lactobionic acid], the cellular uptake result in the data set on HepG2 cells is “ASGPR mediated cellular uptake”.
